The values that follow come from patent US6899878 (GENETICS INSTITUTE, dated 2005).

First the molecules themselves.
B1: bicoid (unrelated bait) (other, UniProt P09081 2-160, looked up)
chain: AQPPPDQNFYHHPLPHTHTHPHPHSHPHPHSHPHPHHQHPQLQLPPQFRNPFDLLFDERTGAINYNYIRPYLPNQMPKPDVFPSEELPDSLVMRRPRRTRTTFTSSQIAELEQHFLQGRYLTAPRLADLSAKLALGTAQVKIWFKNRRRRHKIQSDQHK
B2: IL-1 receptor p80 (type I) amino acids 477 to 527, wild-type bait from plasmid EG202-IL1R (477-527) (receptor, human, UniProt P14778 494-544, looked up)
chain: QDYEKMPESIKFIKQKHGAIRWSGDFTQGPQSAKTRFWKNVRYHMPVQRRS
modifications: also: fused to LexA (pEG202 bait), residues not given here
notes: range 477-527; positions may be shifted against the UniProt entry; also called WT; original bait; not shown: LexA, fusion partner of baits made in vector pEG202
B6: IL-1 receptor p80 (477-527) mutant bait K515R (receptor)
chain: QDYEKMPESIKFIKQKHGAIRWSGDFTQGPQSAKTRFWRNVRYHMPVQRRS
modifications: also: fused to LexA (pEG202 bait), residues not given here

Assay [1] deals with T1, IL-1-R intracellular ligand protein encoded by clone 14w (interaction trap prey) (human, UniProt P17655 450-700).
T1 construct: Prey fusion expressed from pJG4-5 in yeast
T1 sequence: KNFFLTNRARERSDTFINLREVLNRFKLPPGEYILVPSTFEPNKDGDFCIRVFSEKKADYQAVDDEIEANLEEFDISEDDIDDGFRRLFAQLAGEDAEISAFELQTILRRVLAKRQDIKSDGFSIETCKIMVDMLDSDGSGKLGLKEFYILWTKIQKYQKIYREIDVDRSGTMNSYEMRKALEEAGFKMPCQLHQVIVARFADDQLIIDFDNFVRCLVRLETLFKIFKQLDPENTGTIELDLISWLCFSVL
As to the kind of experiment: yeast interaction trap, bait specificity test. The source says: (§1) A WI38 cDNA library was transformed into the reporter strain (EGY48/pSH18-34) containing the bait plasmid EG202-IL1R (477–527). 1.3 million primary transformants were harvested and 7 million colonies were screened. 192 galactose-dependent colonies were isolated. Among these, 51 clones were bait specific (i.e., interacted specifically with the original bait, but not with an unrelated bait, bicoid). These clones were then subjected to DNA sequence analysis. Clones 19w was isolated 6, times, clone 31w twice and clone 14w once.

Assay [2] has as its target T2, IL-1-R intracellular ligand protein encoded by clone 19w (interaction trap prey) (human, UniProt Q92626 1304-1479).
T2 construct: Prey fusion expressed from pJG4-5 in yeast; believed to be a partial clone of a longer protein
T2 sequence: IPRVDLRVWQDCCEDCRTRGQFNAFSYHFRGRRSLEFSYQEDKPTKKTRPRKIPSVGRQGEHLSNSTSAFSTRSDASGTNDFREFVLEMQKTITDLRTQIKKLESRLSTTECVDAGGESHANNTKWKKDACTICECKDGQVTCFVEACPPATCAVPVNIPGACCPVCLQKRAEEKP
Briefly: yeast interaction trap, bait specificity test.
From the text: as §1

Assay [3] addresses T1, IL-1-R intracellular ligand protein …. As to the kind of experiment: yeast interaction trap, LacZ blueness on plates. How it is done:
(§2) Mutations that abolish IL-1R signaling ere introduced into the original bait plasmid, EG202-IL-1R (477–527) (with following amino acid substitutions: F513A, W514A, K515R, R518K, and Y519S) and the ability of the IL-1R intracellular ligands to interact with these mutant proteins was tested in the interaction trap. EGY48 carrying pSH18-34 (lexAop-LacZ) were cotransformed with two plasmids: one carrying 14w, 19w or 31w; the other with bait, EG202-IL1R (477–527), either wild-type or one of the mutants, transformants were then streaked onto CM ura⁻his⁻trp⁻ plates containing galactose/raffinose and β-gal. The strength of interaction (as indicated by the number of "+" signs) was judged by the blueness in the plates (indicator of LacZ expression).

Assay [4] has as its target T2, IL-1-R intracellular ligand protein …. Briefly: yeast interaction trap, LacZ blueness on plates. On the procedure: as §2
For assay [5], the target named is B6. Briefly: yeast interaction trap, LacZ blueness on plates. On the procedure:
as §2

Assay [6] has as its target B2. Briefly: yeast interaction trap, LacZ blueness on plates. On the procedure: as §2
The target in the assay “bicoid (unrelated bait)” is B1. Briefly: yeast interaction trap, bait specificity test.
From the text: as §1

Ends that are not written are not given here.

Take B1: the binding result in assay [1] and in assay [2] was “no binding” throughout.
Consider B2, for which the binding result in assay [3] and in assay [4] was “binds” each time.

B3: IL-1 receptor p80 (477-527) mutant bait R518K (receptor, human, UniProt P14778 494-544, looked up)
chain: QDYEKMPESIKFIKQKHGAIRWSGDFTQGPQSAKTRFWKNVKYHMPVQRRS
modifications: also: fused to LexA (pEG202 bait), residues not given here
notes: range 477-527; not shown: LexA, fusion partner of baits made in vector pEG202
On to B3, for which, in assay [3], the binding result is listed as “binds”.

B4: IL-1 receptor p80 (477-527) mutant bait W514A (receptor, human, UniProt P14778 494-544, looked up)
chain: QDYEKMPESIKFIKQKHGAIRWSGDFTQGPQSAKTRFAKNVRYHMPVQRRS
modifications: also: fused to LexA (pEG202 bait), residues not given here
notes: as for B3
In the case of B4, the binding result in assay [3] and in assay [4] was “binds” in each case.

B5: IL-1 receptor p80 (477-527) mutant bait Y519S (receptor, human, UniProt P14778 494-544, looked up)
chain: QDYEKMPESIKFIKQKHGAIRWSGDFTQGPQSAKTRFWKNVRSHMPVQRRS
modifications: also: fused to LexA (pEG202 bait), residues not given here
notes: as for B3
For B5, the binding result in assay [3] is “binds”.
For B6, the binding result in assay [3] and in assay [4] was “binds” each time.

B7: IL-1-R intracellular ligand protein encoded by clone 31w (interaction trap prey) (other, not shown: large carriers)
chain: KKGGKTEQDGYQKPTNKHFTQSPKKSVADLLGSFEGKRRLLLITAPKAENNMYVQQRDEYLESFCKMATRKISVITIFGPVNNSTMKIDHFQLDNEKPMRVVDDEDLVDQRLISELRKEYGMTYNDFFMVLTDVDLRVKQYYEVPITMKSVFDLIDTFQSRIKDMEKQKKEGIVCKEEVGGVLELFPINGSSVVEREDVPAHLVKDIRNYFQVSPEYFSMLLVGKDGNVKSWYPSPMWSMVIVYDLIDSMQLRRQEMAIQQSLGMRCQKMSMQAMVTIVTTKDTRMVTRMTTVIMRVITMDTLTEQKYVTLDSASFLCSC
notes: Prey fusion expressed from pJG4-5 in yeast; believed to be a partial clone of a longer protein
As for B7, the results for the binding result (in assay [5]; in assay [6]; with bicoid (unrelated bait)) were “binds”, “binds” and “no binding”, respectively.
